# According to IntAct's records for PubMed 23478064:
# B1: Eukaryotic translation initiation factor 4 gamma 2 (Homo sapiens), P78344-1 (parent)
# chain: MESAIAEGGASRFSASSGGGGSRGAPQHYPKTAGNSEFLGKTPGQNAQKWIPARSTRRDDNSAANNSANEKERHDAIFRKVRGILNKLTPEKFDKLCLELLNVGVESKLILKGVILLIVDKALEEPKYSSLYAQLCLRLAEDAPNFDGPAAEGQPGQKQSTTFRRLLISKLQDEFENRTRNVDVYDKRENPLLPEEEEQRAIAKIKMLGNIKFIGELGKLDLIHESILHKCIKTLLEKKKRVQLKDMGEDLECLCQIMRTVGPRLDHERAKSLMDQYFARMCSLMLSKELPARIRFLLQDTVELREHHWVPRKAFLDNGPKTINQIRQDAVKDLGVFIPAPMAQGMRSDFFLEGPFMPPRMKMDRDPLGGLADMFGQMPGSGIGTGPGVIQDRFSPTMGRHRSNQLFNGHGGHIMPPTQSQFGEMGGKFMKSQGLSQLYHNQSQGLLSQLQGQSKDMPPRFSKKGQLNADEISLRPAQSFLMNKNQVPKLQPQITMIPPSAQPPRTQTPPLGQTPQLGLKTNPPLIQEKPAKTSKKPPPSKEELLKLTETVVTEYLNSGNANEAVNGVREMRAPKHFLPEMLSKVIILSLDRSDEDKEKASSLISLLKQEGIATSDNFMQAFLNVLDQCPKLEVDIPLVKSYLAQFAARAIISELVSISELAQPLESGTHFPLFLLCLQQLAKLQDREWLTELFQQSKVNMQKMLPEIDQNKDRMLEILEGKGLSFLFPLLKLEKELLKQIKLDPSPQTIYKWIKDNISPKLHVDKGFVNILMTSFLQYISSEVNPPSDETDSSSAPSKEQLEQEKQLLLSFKPVMQKFLHDHVDLQVSALYALQVHCYNSNFPKGMLLRFFVHFYDMEIIEEEAFLAWKEDITQEFPGKGKALFQVNQWLTWLETAEEEESEEEAD
# Variants of: B1
# Details: with if4a1_human EIF4A1, P60842
# Chain of if4a1_human EIF4A1, P60842 (P60842 whole entry): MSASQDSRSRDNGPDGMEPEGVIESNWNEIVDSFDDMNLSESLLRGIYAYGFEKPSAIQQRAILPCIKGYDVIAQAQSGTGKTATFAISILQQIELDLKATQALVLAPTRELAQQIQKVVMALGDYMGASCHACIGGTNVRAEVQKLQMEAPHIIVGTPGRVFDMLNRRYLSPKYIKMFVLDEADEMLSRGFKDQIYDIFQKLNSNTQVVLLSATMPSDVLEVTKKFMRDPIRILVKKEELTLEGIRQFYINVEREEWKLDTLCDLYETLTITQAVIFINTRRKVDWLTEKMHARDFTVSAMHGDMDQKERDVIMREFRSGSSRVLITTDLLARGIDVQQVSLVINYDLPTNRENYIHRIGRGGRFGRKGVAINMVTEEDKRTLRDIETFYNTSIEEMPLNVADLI
row,effect of a mutation on the interaction,Variant
1,disrupting interaction strength,F296A
2,disrupting interaction strength,E125K
3,disrupting interaction strength,N86A
